In PMC4053179 one finds Kd and IC50 of inhibition of the phosphorylation of plate-coated ATF-2 by p38α (ELISA kinase assay, 100 μM ATP, C-25 data, which are given here for one substance.

What is called Kd is the concentration at which binding is half-saturated.

For assay [1], the target named is recombinant p38α MAP kinase (mitogen activated protein kinase) (UniProt Q16539). In words: SPR; His-tagged p38α immobilised on an NTA sensor chip via Ni2+/NTA chelation, 25°C, BIAcore-2000; C-25 injected at 4.6 × 10^−6, 9.2 × 10^−6 and 13.8 × 10^−6 M; BIAevaluation 3.0. Background: Surface plasmon resonance follows binding to a sensor surface in real time, without labels.

Assay [2] has the same target.

Sequence of UniProt Q16539 (Q16539 whole entry): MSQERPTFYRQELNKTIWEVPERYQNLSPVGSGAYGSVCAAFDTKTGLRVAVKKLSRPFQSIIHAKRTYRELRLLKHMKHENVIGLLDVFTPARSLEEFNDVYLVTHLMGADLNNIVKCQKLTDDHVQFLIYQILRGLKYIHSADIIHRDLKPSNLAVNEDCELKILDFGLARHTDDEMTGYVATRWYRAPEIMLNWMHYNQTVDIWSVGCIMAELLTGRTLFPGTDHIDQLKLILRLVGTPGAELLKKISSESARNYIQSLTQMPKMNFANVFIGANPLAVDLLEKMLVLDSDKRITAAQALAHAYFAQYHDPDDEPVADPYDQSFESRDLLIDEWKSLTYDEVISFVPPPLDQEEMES

On to “C-25 protein from Cicer arietinum (natural protein)”, for which the Kd in assay [1] was determined as 0.269 µM. Also, the IC50 of inhibition of the phosphorylation of plate-coated ATF-2 by p38α (ELISA kinase assay, 100 μM ATP, C-25 at 1-25 μM, anti-phospho ATF-2 detection) in assay [2] came to 7.9 µM.
